For this assay, the target named is T1, full-length γζ-COP dimer (B. taurus, UniProt P53620 1-874; P35604 1-177).
T1 sequence (looked up) 1: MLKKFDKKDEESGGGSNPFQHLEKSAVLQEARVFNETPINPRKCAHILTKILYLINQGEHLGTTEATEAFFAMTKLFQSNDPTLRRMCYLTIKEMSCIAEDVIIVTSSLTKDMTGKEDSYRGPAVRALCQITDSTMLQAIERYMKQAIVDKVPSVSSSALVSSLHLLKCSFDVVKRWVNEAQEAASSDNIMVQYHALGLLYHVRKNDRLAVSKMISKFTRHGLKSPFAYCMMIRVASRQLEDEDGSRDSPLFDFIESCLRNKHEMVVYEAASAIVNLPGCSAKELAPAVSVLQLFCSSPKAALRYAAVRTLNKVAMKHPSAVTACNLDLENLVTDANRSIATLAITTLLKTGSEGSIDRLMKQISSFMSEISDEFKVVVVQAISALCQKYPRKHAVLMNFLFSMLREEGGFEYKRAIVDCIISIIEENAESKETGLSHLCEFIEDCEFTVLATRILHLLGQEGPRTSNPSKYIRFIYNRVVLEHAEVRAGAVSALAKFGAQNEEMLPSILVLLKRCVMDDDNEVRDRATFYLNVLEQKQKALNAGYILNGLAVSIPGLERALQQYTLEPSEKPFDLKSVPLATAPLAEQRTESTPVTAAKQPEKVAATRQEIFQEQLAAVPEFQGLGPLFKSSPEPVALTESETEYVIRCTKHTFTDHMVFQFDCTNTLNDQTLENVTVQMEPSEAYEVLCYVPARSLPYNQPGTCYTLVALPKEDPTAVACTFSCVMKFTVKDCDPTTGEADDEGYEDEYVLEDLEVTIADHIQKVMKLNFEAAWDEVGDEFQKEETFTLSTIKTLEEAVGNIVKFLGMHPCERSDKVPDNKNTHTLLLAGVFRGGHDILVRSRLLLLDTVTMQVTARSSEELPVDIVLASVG
T1 sequence (looked up) 2: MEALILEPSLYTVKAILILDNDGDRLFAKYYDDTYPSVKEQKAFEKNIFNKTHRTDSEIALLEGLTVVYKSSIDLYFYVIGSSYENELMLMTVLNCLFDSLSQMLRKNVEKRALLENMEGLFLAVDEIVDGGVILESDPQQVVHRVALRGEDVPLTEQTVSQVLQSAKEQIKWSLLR
In words: pull-down.

B1: S. cerevisiae Arf1 (residues 18–181) with a C-terminal GST tag (domain or fragment, UniProt P11076 18-181, looked up)
chain: MRILMVGLDGAGKTTVLYKLKLGEVITTIPTIGFNVETVQYKNISFTVWDVGGQDRIRSLWRHYYRNTEGVIFVVDSNDRSRIGEAREVMQRMLNEDELRNAAWLVFANKQDLPEAMSAAEITEKLGLHSIRNRPWFIQATCATSGEGLYEGLEWLSNSLKNST
As for B1, the binding result is “binds”.

Source of the values: PMC3285272 (Cell, 2012).
